Biological target: TLHL

B1: tobacco etch virus (TEV) protease (protein)
chain: GESLFKGPRDYNPISSTICHLTNESDGHTTSLYGIGFGPFIITNKHLFRRNNGTLLVQSLHGVFKVKNTTTLQQHLIDGRDMIIIRMPKDFPPFPQKLKFREPQREERICLVTTNFQTKSMSSMVSDTSCTFPSSDGIFWKHWIQTKDGQCGSPLVSTRDGFIVGIHSASNFTNTNNYFTSVPKNFMELLTNQEAQQWVSGWRLNADSVLWGGHKVFMSKPEEPFQPVKEATQLMNELVYSQ
- proteolytic cleavage seen on SDS-PAGE: Incubation of TLHL with the TEV protease in PBS at room temperature or at 4 °C produced therefore, a 19kD band on an SDS-PAGE gel

— US6521741
